Assay: soluble on expression in E. coli; label from the status in PepcDB or PDB records

MYEIKGHHHISMVTKNANENNHFYKNVLGLRRVKMTVNQDDPSMYHLFYGDKTGSPGTELSFFEIPLVGRTYRGTNAITRIGLLVPSEDSLHYWKERFEKFDVKHSEMTTYANRPALQFEDAEGLRLVLLVSNGEKVEHWETWEKSEVPAKHQIQGMGSVELTVRRLDKMASTLTEIFGYTEVSRNDQEAIFQSIKGEAFGEIVVKYLDGPTEKPGRGSIHHLAIRVKNDAELAYWEEQVKQRGFHSSGIIDRFYFKSLYFRESNGILFEIATDGPGFTVDGDVEHLGEKLDLPPFLEDQRAEIEANLAPIEEK
soluble on expression in E. coli: soluble

MPKIDLIIFDCDGVLVDSEYLAAQIGSQLLKKIGYEISPEELSARYAGLIFPDILKKVEQETGKPTSAHLIDQMSDLFRAQIKTELRAIDGIKEAIEAIQSHYPYCICSNARSTEIKEMLTIVDLYDFFDNKDKIFSAPEVGTKKTKPAPDVFLFAAQQLRVKPKNTIVIEDSIHGVHAATAAGMRVIGFTGGSHSYLGHSNALVEAGAETAIAKHAHLLEVLEAMAVWQDLP
soluble on expression in E. coli: not soluble

GSFTEGWVRFSPGPNAAAYLTLENPGDLPLRLVGARTPVAERVELHETFMREVEGKKVMGMRPVPFLEVPPKGRVELKPGGYHFMLLGLKRPLKAGEEVELDLLFAGGKVLKVVLPVEAR
soluble on expression in E. coli: soluble

MGSDKIHHHHHHMNNTPTPPKVLLLLTSLHGGGAERVAVHLLNRLQGRFDMRMGLLRASGPYLDQADRSRLIVAPEGETHFNFDGPNSANYRPGKLVGSAVRAPLAFRRMIRETQPDVVLSFLKGTNLLVWLALMNMGRARPRWIAREGNNVLAVIREEAPNGAVARASRDLTAKAYRRADAVLANSTDMAAGLITDLDLDPAKMRMINNPIDIDGIREAAGESLPGAPNRPFILTAGRLEYQKAHEVLLRAFARSEAWRTHALVILGKGSRLGELHRLAAQLGIGEYVRFIGFVPNPYAWMARADLFVLPSRWEGFPTVAAEAMACGTPLLLTDCRFGARDIVEPGVTGELVPVNDEAALATEIAALLASPERRSALARAGREKVERFRLERMLEAYAALFDEQFAARRR
soluble on expression in E. coli: not soluble

MGSDKIHHHHHHMAKKVAVLAVNPVNGCGLFQYLEAFFENGISYKVFAVSDTKEIKTNSGMVLIVDDVIANLKGHEDEFDALVFSCGDAVPVFQQYANQPYNVDLMEVIKTFGEKGKMMIGHCAGAMMFDFTGITKGKKVAVHPLAKPAIQNGIATDEKSEIDGNFFTAQDENTIWTMLPKVIEALK
soluble on expression in E. coli: not soluble

MANAASGMAVHDDCKLRFLELKAKRTHRFIVYKIEEKQKQVVVEKVGQPIQTYEEFAACLPADECRYAIYDFDFVTAENCQKSKIFFIAWCPDIAKVRSKMIYASSKDRFKRELDGIQVELQATDPTEMDLDVFRSRAN
soluble on expression in E. coli: soluble

MGSDKIHHHHHHMSKEIDIEYYHQLALQKQKEHRKVLANLKKKPPKNLDKIAQQIHQEVFEEIDCTACANCCKTLGPDFKEADITRIAKYFKMKLPAFEAEFLQVDADGDKVFKSMPCPFLGGDNLCSIYDVRPKACREFPHTDRKKIHQINHLTIKNTLTCPAAYLFVEKLKDKL
soluble on expression in E. coli: not soluble

GATVHELSRDKKKDTVPWFPRTIQELDRFANQILSYGAELDADHPGFKDPVYRARRKQFADIAYNYRHGQPIPRVEYMEEEKKTWGTVFKTLKSLYKTHACYEYNHIFPLLEKYCGFHEDNIPQLEDVSQFLQTCTGFRLRPVAGLLSSRDFLGGLAFRVFHCTQYIRHGSKPMYTPEPDICHELLGHVPLFSDRSFAQFSQEIGLASLGAPDEYIEKLATIYWFTVEFGLCKQGDSIKAYGAGLLSSFGELQYCLSEKPKLLPLELEKTAIQNYTVTEFQPLYYVAESFNDAKEKVRNFAATIPRPFSVRYDPYTQRIEVLDNT
soluble on expression in E. coli: soluble

MKLVLAVIQDADAAALMRALSEQHFEATKLASTGGFLREGNTTLMIGVDDQRLDTLRTLIGQTCRSRTRLVPARGLVSESEGGVAQEPVEVPVGGAVIFVLGVEDFVKV
soluble on expression in E. coli: not soluble

MHHHHHHSSGVDLGTENLYFQSMRTGYRVFSANSTAACTELAKRITERLGAELGKSVVYQETNGETRVEIKESVRGQDIFIIQTIPRDVNTAVMELLIMAYALKTACARNIIGVIPYFPYSKQSKMRKRGSIVCKLLASMLAKAGLTHIITMDLHQKEIQGFFSFPVDNLRASPFLLQYIQEEIPNYRNAVIVAKSPDAAKRAQSYAERLRLGLAVIHGEAQCTELDMDDGRHSPPMVKNATVHPGLELPLMMAKEKPPITVVGDVGGRIAIIVDDIIDDVESFVAAAEILKERGAYKIYVMATHGILSAEAPRLIEESSVDEVVVTNTVPHEVQKLQCPKIKTVDISLILSEAIRRIHNGESMAYLFRN
soluble on expression in E. coli: soluble

MASANNQNKFLDPRERGNILNYLKVCLLLARAVRRMHAAGLCHSDLSYKNVLIDPEQGHACIIDVDGLVVPGKFPPDVVGTPDFIAPEVVKTSHLLKEDPQRILPNITTDRHALSVLIYMYLFYRHPLRGGKIHDMDDEVRDESLAMGERALFIEHPTDRSNAVKLNQVKPSSLPWADPQKVPYTIMGPYLTQLFEKAFIDGLHDPSKRPTADEWETALVKTVDLIQPCQNTACEQKWYVFSGKTKPVCPYCLEHHHHHH
soluble on expression in E. coli: soluble

MSLEKQMNCNLKELKEFIDNEMLLILGQMDKPSLIFDHLYLGSEWNASNLEELQGSGVDYILNVTREIDNFFPGLFAYHNIRVYDEETTDLLAHWNEAYHFINKAKRNHSKCLVHCKMGVSRSASTVIAYAMKEFGWPLEKAYNYVKQKRSITRPNAGFMRQLSEYEGILDASKQRHNKLWRQQTDSEGHHHHHH
soluble on expression in E. coli: not soluble

MRVDELRVDERIKSTLKERGIESFYPPQAEALKSGILEGKNALISIPTASGKTLIAEIAMVHRILTQGGKAVYIVPLKALAEEKFQEFQDWEKIGLRVAMATGDYDSKDEWLGKYDIIIATAEKFDSLLRHGSSWIKDVKILVADEIHLIGSRDRGATLEVILAHMLGKAQIIGLSATIGNPEELAEWLNAELIVSDWRPVKLRRGVFYQGFVTWEDGSIDRFSSWEELVYDAIRKKKGALIFVNMRRKAERVALELSKKVKSLLTKPEIRALNELADSLEENPTNEKLAKAIRGGVAFHHAGLGRDERVLVEENFRKGIIKAVVATPTLSAGINTPAFRVIIRDIWRYSDFGMERIPIIEVHQMLGRAGRPKYDEVGEGIIVSTSDDPREVMNHYIFGKPEKLFSQLSNESNLRSQVLALIATFGYSTVEEILKFISNTFYAYQRKDTYSLEEKIRNILYFLLENEFIEISLEDKIRPLSLGIRTAKLYIDPYTAKMFKDKMEEVVKDPNPIGIFHLISLTPDITPFNYSKREFERLEEEYYEFKDRLYFDDPYISGYDPYLERKFFRAFKTALVLLAWINEVPEGEIVEKYSVEPGDIYRIVETAEWLVYSLKEIAKVLGAYEIVDYLETLRVRVKYGIREELIPLMQLPLVGRRRARALYNSGFRSIEDISQARPEELLKIEGIGVKTVEAIFKFLGKNVKISEKPRKSTLDYFLKS
soluble on expression in E. coli: soluble

MGSDKIHHHHHHMSSSDNILERLLFTIHKRLVSIPIAPNLRKNVAPIVNDWPSRPEKNTRPSTTVHLPAVDYLEQALKIGETSGDREICPMIRLLAPELSWNFDYAPHPAFPYLDEKVAFTQFVGPNDLWVSSHLAIGLTLIAPETHYPAHCHPATEIYLPLAGTGSWSMGNYYYFPRKPGELIFHPSGITHATQAQEEPMLALYIWHGDICSPSEWLPDECE
soluble on expression in E. coli: not soluble

MNIEEIKIMGGFNKFGESEKVKELVVKRGEIFGVVGPTGSGKSNLISDIEQLAQGDTPSNRKILVNGNVPDTEMRRDPRKRRIAQLSQNMNFLADMTVEEFLIMHAKSRGMNSEGIVDKVIKLANNLTGEPIEKDYNLTILSGGQSRSLMVADVAVISDSPIVLIDEIENAGIKKHEALELLAGCGKIVMVITHDPVLALMTTRRVVMRNGGMNEIIETTE
soluble on expression in E. coli: not soluble

MGSDKIHHHHHHMEIKEMVSLARKAQKEYQATHNQEAVDNICRAAAKVIYENAAILAREAVDETGMGVYEHKVAKNQGKSKGVWYNLHNKKSIGILNIDERTGMIEIAKPIGVVGAVTPTTNPIVTPMSNIIFALKTCNAIIIAPHPRSKKCSAHAVRLIKEAIAPFNVPEGMVQIIEEPSIEKTQELMGAVDVVVATGGMGMVKSAYSSGKPSFGVGAGNVQVIVDSNIDFEAAAEKIITGRAFDNGIICSGEQSIIYNEADKEAVFTAFRNHGAYFCDEAEGDRARAAIFENGAIAKDVVGQSVAFIAKKANINIPEGTRILVVEARGVGAEDVICKEKMCPVMCALSYKHFEEGVEIARTNLANEGNGHTCAIHSNNQAHIILAGSELTVSRIVVNAPSATTAGGHIQNGLAVTNTLGCGSWGNNSISENFTYKHLLNISRIAPLNSSIHIPDDKEIWEL
soluble on expression in E. coli: not soluble

MVYDDANKKWVPAGGSTGFSRVHIYHHTGNNAFRVVGRKIQDHQVVINCAIPKGLKYNQATQTFHQWRDARQVYGLNFGSKEDASVFASAMMHALEVLNSQDAGEKALFTAGCEV
soluble on expression in E. coli: soluble

MSEHETAGEGRFNSIEIRVLGSLIEKQATSPESYPLTLNALVLACNQKTSREPVMNLTQGQVGQALRALEGQGMTRLQMGSRADRWEHRVDKALELVPAQLVLMGLMFLRGPQTLNELLTRSNRLHDFDDTEQIQHQLERLISRDLALHLPRQAGQREDRYTHALGDPAEIEAILAARQQEGGARTSGGSVSEDRIEALEARIAALEARLAELEG
soluble on expression in E. coli: not soluble

MKYQLRAIDNQLDEMLQFSGAIAVEGVKGVGKTESAIRRSEHLLQLDRAGDRQLLEADPEFSSFSTGTILIDEWQRMPECWDFVRRGVDAQRTPGRFLLTGSATPQAGIDTHSGAGRILSIRMRPMALFERREHSATVSLADLFLGNAPISGTTDLTLNDYVSEIARSGFPGFNEQPQRAINVELDSYIERIVDRDLPEQGYNVRNRAGLLGWMRAYAAASSTTMSYSEILNAATPGESDKPARKTAALYRSKLTEIWMLDEVPAWDFVRSPLAGLAQAPKHQLADPAFVLRLLGVPANRLVTERYRHFLGPLFESLATLSVRVAAESQFGSVRHLRTRRGDHEVDLIASNQDGDLVAIEVKLTADVKNDDVAHLHWLKEQLPDDVVDMVVLTTGNRAYRRSDGVAVVPLALFGA
soluble on expression in E. coli: not soluble

MKKSPKISLILEAFQNLEKAYVDLKKNLEIPKEEFVKNKLVQDRVRIDFNLAFESTMRVCRHLSAVYGVKTSSRDCLPKIAEHIGLPFADRLKKFSEFYFRYRDLKDTVSPEELYDFLKENLVLFKEFARGVVEYIKKTTGNYLLIDFDLLNEKAKFIKDSVKKIDFVLSQGEEEFKKTPMYYDRVKYFYQVAYDSLFDICKHLAPKFGIKKFGDDCLTKMVEKGVIPPEYYETVLKMTLLKNKLISTWEVSPEELYRSLKELNDKFIPVLREISKSLKLLLEKKAKEVGKEA
soluble on expression in E. coli: not soluble

VPVQLADLKEVRIAYQSIGSESDPALLLVMGLGGQLIHWPDEVVVALCQQGYRVIRYDNRDVGLSTWVQQPADANLTVEVLRYKLGLPVSSPYSLTDMADDALGLMDALQIRQFHVLGASMGGMIAQHLADLAPSRVESLTLIMTSSGAQGLPMPNAALLQLLARRGAPDREVALEQQADLLAALGSPQVKDDREQLLHQAAVSYDRAFNPEGVKRQIMAILAEPSRVELLNRLRLPVLVVHGTADPLLPVMHGVHVAAHIQGSQLRLIPGLAHRFQEAFKAPLLGAVLPYLKA
soluble on expression in E. coli: not soluble

MVGTFLGTGASSGVPMLNCSCKVCTSSYSKNKRLRSSFFLESSSGIKLLIDTGPDIRQQLLREKIDRLDLVLYTHEHYDHIMGFDDIKFYTRCAPLNIYARDTAMAHIRNAFPYNFTSKPSLSGKADIIANVIRDFEPFFFKSLKIVPIPLIHGDIISLGYRVGNLAYLTDVKFIPEASYDYLKNLDLLIIDAMRIKPHPAHLNFSEAFCVIKKINPKISYFTHIAHDIMHEEFDYLEKDNIYLAYDGLKIYILEHHHHHH
soluble on expression in E. coli: not soluble

Reference: the DeepSol protein solubility set
